{"source": "patent US20260021119A1", "about": "“TETRACYCLINE DERIVATIVES” (ICM (INSTITUT DU CERVEAU ET DE LA MOELLE ÉPINIÈRE), priority 2022, published 2026)", "molecules": {"B1": {"name": "apotransferrin (protein, UniProt Q29443 20-704, looked up)", "Serotransferrin": "DPERTVRWCTISTHEANKCASFRENVLRILESGPFVSCVKKTSHMDCIKAISNNEADAVTLDGGLVYEAGLKPNNLKPVVAEFHGTKDNPQTHYYAVAVVKKDTDFKLNELRGKKSCHTGLGRSAGWNIPMAKLYKELPDPQESIQRAAANFFSASCVPCADQSSFPKLCQLCAGKGTDKCACSNHEPYFGYSGAFKCLMEGAGDVAFVKHSTVFDNLPNPEDRKNYELLCGDNTRKSVDDYQECYLAMVPSHAVVARTVGGKEDVIWELLNHAQEHFGKDKPDNFQLFQSPHGKDLLFKDSADGFLKIPSKMDFELYLGYEYVTALQNLRESKPPDSSKDECMVKWCAIGHQERTKCDRWSGFSGGAIECETAENTEECIAKIMKGEADAMSLDGGYLYIAGKCGLVPVLAENYKTEGESCKNTPEKGYLAVAVVKTSDANINWNNLKDKKSCHTAVDRTAGWNIPMGLLYSKINNCKFDEFFSAGCAPGSPRNSSLCALCIGSEKGTGKECVPNSNERYYGYTGAFRCLVEKGDVAFVKDQTVIQNTDGNNNEAWAKNLKKENFEVLCKDGTRKPVTDAENCHLARGPNHAVVSRKDKATCVEKILNKQQDDFGKSVTDCTSNFCLFQSNSKDLLFRDDTKCLASIAKKTYDSYLGDDYVRAMTNLRQCSTSKLLEACTFHKP", "modifications": "iron-free apo form"}}, "tested_on": "p-tau (phosphorylated tau protein at Ser202, Thr205 residues)", "test": "p-tau (AT8) expression in cultured cortical neurons under oxidative stress", "type": "cell-based, mouse", "parameters": "key to Reduction of the % of p-tau+ somas: a favorable response, synonymous with a decrease in the number of p-tau+ cell bodies; ++: a favorable response, synonymous with a decrease in the number of p-tau+ cell bodies; +++=reference level; an unfavorable response is represented by a sign “−”, synonymous with an elevation of the number of p-tau+ cell bodies", "conditions": "compounds 3 μM, APO 100 μg/mL; mouse cortical cultures exposed div 7-11 to DF12i", "procedure": "A culture model of cortical neurons from mouse embryonic brain was used, in which neuronal cells were subjected to a maturation step until day in vitro (div) 7, before being gradually exposed to phenol red formulated DMEM/Nutrient mixture F12 Ham supplemented with 20 μg/mL of insulin, and 2 μM of the NMDA receptor blocker MK-801 (DF12i).\nPrecisely, after 4 days of exposure to DF12i, between 10-15% of surviving neurons show a very strong AT8 immunosignal in their somas while only 1 to 1.5% of neuronal cell bodies are found immunopositive under conditions where oxidative stress is repressed by treatment with bovine apotransferrin (APO; 100 µg/mL, Sigma Aldrich), a glycoprotein with iron chelating properties. Likewise, overexpression of p-tau in cortical cell bodies is reduced by the two non-antibiotic tetracyclines compound of formula (C) ([…]) and compound of formula (Ib) ([…]): see the following Table: […]", "data": [{"molecule": "B1", "values": [{"measurement": "Reduction of the % of p-tau+ somas", "value": "+++"}]}]}
